Measured values: patent US6991908 (Takeda / Millennium, dated 2006)
Positions of bridges follow the written chain, without caps; N, C: chain ends. No end group written: not given here.

Experiments:
[1] = target: rat SLC-1 (rat, UniProt P97639 1-353); experiment: cell-based or functional assay
[2] = target: T1, human SLC-1 (human); experiment: radioligand competition against [125I]-labeled MCH(4-19) on human SLC-1-expression CHO cell membrane fraction (2.5 µg/ml), filtration, γ-counter
T1 construct: also called hSLC-1; human SLC-1(S)

Binder	agonist activity, GTPγS binding assay (fold decrease against MCH) [1] [times]	IC50 [2] [pM]
RCMLGRVYRPCWQV (disulfide 2-11) [Des-[Asp1, Phe2, Asp3, Met4, Leu5]-MCH (MCH(6-19))]	~10	–
DFDMLRCMLGRVYRPCWQV (ligand, disulfide 7-16, also called synthetic MCH; synthetic rat MCH) [melanin concentrating hormone (MCH), rat MCH]	–	200
CMLGRVYRPCWQV (disulfide 1-10) [Des-[Asp1, Phe2, Asp3, Met4, Leu5, Arg6]-MCH (MCH(7-19))]	~200	–
